The source of these data is patent US7612163B1, “Prokineticin 2β peptide and its use” (Janssen Pharmaceutica N.V., priority 2004, dated 2009).

Assay [1] addresses T1, PKR2 (Homo sapiens, UniProt Q8NFJ6). Briefly: Radioligand competition binding assay (125I-PK2-f), PKR2 expressing COS-7 cells. The settings on record: FIG. 4B. More on the design: The full-length cDNA coding regions for both PKR1 and PKR2 were PCR-amplified from human fetal brain cDNA; expressed in transfected cells; host or cells: COS-7 (transient, pCIneo). Here is the method: (§1) FIGS. 4A and 4B graphically illustrate that PKs bind the PKR1 and PKR2 with different affinities. COS-7 cells transiently expressing PKR1 or PKR2 were seeded to 96-well plates. ^125I-labeled PK2-f was added to each well at a final concentration of 100 pM. Different concentrations of PK1, PK2 or PK2β were added to the assays as the competitors. All assays were performed in triplicates. The results are mean values (±S.E.M) of triplicates. FIG. 4A provides the results of the binding assay using PKR1 expressing cells.
(§2) Expression, purification, and iodination of C-terminal FLAG-tagged PK2. C-terminal FLAG-tagged PK2 (PK2-f) was constructed as described (Soga et al., 2002). Two primers P9: ATCGAGAATTCGCCACCATGAGGAGCCTGTGCTGCGCCC (SEQ.ID.NO.:11) and P10: GGATCCCTACTTATCGTCGTCATCCTTATAATCCTTTTGGGCTAAACA (SEQ.ID.NO.:12) were used to amplify human whole brain cDNA (Clontech). The PCR-amplified PK2-f was cloned into a mammalian expression vector pCMV-sport1 (Invitrogen). The resulting clones were sequenced to confirm the identities and transfected into COS-7 cells using LipofectAmine (Invitrogen). Three days after transfection, the cell culture supernatant was collected and run through an ANTI-FLAG M2 agarose (Sigma) affinity column. The column was washed with PBS and eluted with […] Glycine HCl, pH 3.0. The eluted protein fraction was immediately neutralized with 1 M Tris-HCl, pH 8.0 and then further purified by reverse-phase HPLC using a C4 column (Vydac). The purified recombinant PK2-f protein was iodinated using Iodogen reagent (Pierce, Rockford, Ill.) and ^125I-NaI (PerkinElmer, Boston, Mass.) as described by Pierce. The iodinated PK2-f was purified by a G-50 (Amersham Pharmacia Biotech) gel filtration column.
(§3) Radio-Ligand Binding Assays. PKR1 and PKR2 in the expression vector pCIneo (Promega) were transfected into COS-7 cells using LipofectAmine (Invitrogen). […] After the plates were washed three times with ice cold PBS, Microscint-40 (Packard, Meriden, Conn.) was added and the plates were counted on a Topcount (Packard).
A general note: In a radioligand displacement assay an active substance lowers the binding of a labelled ligand.

Assay [2] has as its target T2, PKR1 (Homo sapiens, UniProt Q8TCW9). Briefly: Intracellular Ca2+ mobilization (FLIPR, Fluo-3) in PKR1 expressing HEK 293 cells. Type of assay: cell-based. Also noted: The full-length cDNA coding regions for both PKR1 and PKR2 were PCR-amplified from human fetal brain cDNA; expressed in transfected cells; (transient, pCIneo). As for the experimental part: (§4) FIGS. 5A and 5B graphically illustrate that PKs stimulate Ca^2+ mobilization in HEK 293 cells expressing PKR1 or PKR2 at different potencies. HEK 293 cells transiently expressing PKR1 or PKR2 were seeded in 96-well plates, loaded with Ca^2+ dye Fluo-3 and then stimulated with different concentrations of PK1, PK2 or PK2β. The release of Ca^2+ was measured with a fluorescence imaging plate reader (FLIPR). The results are mean values (±S.E.M) of triplicate experiments. […] FIG. 5B provides the results for Ca^2+ mobilization in PKR2 expressing cells (legend: ▪, PK1; ▴, PK2; ▾, PK2β).
(§5) Intracellular Ca^2+ Mobilization Assays. PKR1 and PKR2 in the expression vector pCIneo (Promega) were transfected into HEK293 cells using LipofectAmine (Invitrogen). Two days after transfection, cells were detached using PBS containing 10 mM EDTA and seeded in poly-D-lysine coated 96-well black tissue culture plates (BD Biosciences).
In general terms: Calcium assays in cells follow changes in intracellular calcium, usually with a dye or a luminescent sensor.

The target of assay [3] is T1, PKR2. Briefly: Intracellular Ca2+ mobilization (FLIPR, Fluo-3) in PKR2 expressing HEK 293 cells. In kind it is cell-based. More on the design: The full-length cDNA coding regions for both PKR1 and PKR2 were PCR-amplified from human fetal brain cDNA; expressed in transfected cells; (transient, pCIneo). Here is the method: as §4, §5
For assay [4], the target named is T1, PKR2. The experiment in a line: cAMP accumulation (cAMP [125I] FlashPlate) in HEK 293 cells co-expressing PKR2/Gs. Type of assay: cell-based. More on the design: The full-length cDNA coding regions for both PKR1 and PKR2 were PCR-amplified from human fetal brain cDNA; expressed in transfected cells; host or cells: HEK293 (transient, pCIneo, co-transfected with Gs plasmid). Particulars: FIG. 8C. As for the experimental part: FIGS. 8B and 8C illustrate results from HEK 293 cells co-expressing PKR1/Gs (FIG. 8B) or PKR2/Gs (FIG. 8C) stimulated with different PKs at various concentrations (the accumulated cAMP was measured by a cAMP [^125I] FlashPlate Assay kit; the results are mean values (±S.E.M) of triplicate experiments (legend: ▪, PK1; ▴, PK2; ▾, PK2β)).
In a different experiment, PKR1 and PKR2 in the expression vector pCIneo (Promega) were co-transfected with the Gs expression plasmid into HEK293 cells using LipofectAmine (Invitrogen). Two days after transfection, cells were detached with 10 mM EDTA in PBS, resuspended in Dulbecco's Modified Eagle's Medium/F12 (DMEM/F12) media, and then plated on 96-well plates at a density of 50,000 cells per well. Two hours after the seeding, cells culture medium was replaced with DMEM/F12 containing 2 mM isobutylmethylxanthine (Sigma) and incubated for 30 min. Different concentrations of PK1, PK2 or PK2β were added to cells and incubated for an additional 30 min in a final volume of 200 μl/well. The reaction was stopped and cAMP was extracted by adding 20 μl of 0.5 N HCl to each well. Cell culture media were tested for cAMP concentrations by the cAMP [^125I] FlashPlate Assay kit (PerkinElmer) as described by the manufacturer.
On the technique in general: cAMP levels reflect the balance of adenylyl cyclase and phosphodiesterase activity.

In assay [5] the target is T2, PKR1. The experiment in a line: Radioligand competition binding assay (125I-PK2-f), PKR1 expressing COS-7 cells. The settings on record: FIG. 4A. More on the design: The full-length cDNA coding regions for both PKR1 and PKR2 were PCR-amplified from human fetal brain cDNA; expressed in transfected cells; host or cells: COS-7 (transient, pCIneo). Here is the method:
as §1, §2, §3

T1 sequence (Q8NFJ6 whole entry): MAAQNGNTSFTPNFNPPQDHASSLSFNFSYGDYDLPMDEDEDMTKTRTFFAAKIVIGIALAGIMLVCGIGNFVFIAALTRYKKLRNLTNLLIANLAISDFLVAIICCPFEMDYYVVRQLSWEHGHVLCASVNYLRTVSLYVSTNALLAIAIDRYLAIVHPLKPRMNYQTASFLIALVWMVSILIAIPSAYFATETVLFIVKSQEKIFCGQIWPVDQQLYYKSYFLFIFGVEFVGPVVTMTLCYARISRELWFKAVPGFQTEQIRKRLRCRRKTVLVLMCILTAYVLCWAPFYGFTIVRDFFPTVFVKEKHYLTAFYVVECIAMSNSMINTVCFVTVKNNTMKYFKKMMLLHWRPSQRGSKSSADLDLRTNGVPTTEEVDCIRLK
T2 sequence (Q8TCW9 whole entry): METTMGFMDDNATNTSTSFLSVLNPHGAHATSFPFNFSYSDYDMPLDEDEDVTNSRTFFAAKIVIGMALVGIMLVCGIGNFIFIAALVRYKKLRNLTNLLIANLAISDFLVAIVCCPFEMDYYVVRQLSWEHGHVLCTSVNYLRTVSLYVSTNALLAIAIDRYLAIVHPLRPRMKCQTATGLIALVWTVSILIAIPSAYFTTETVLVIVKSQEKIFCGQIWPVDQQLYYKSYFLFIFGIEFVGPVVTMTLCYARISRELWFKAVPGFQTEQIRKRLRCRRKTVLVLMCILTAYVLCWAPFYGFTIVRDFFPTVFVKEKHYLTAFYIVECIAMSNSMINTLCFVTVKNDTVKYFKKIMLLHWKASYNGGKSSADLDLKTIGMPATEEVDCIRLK

With “AVITGACDKDSQCGGGMCCAVSIWVK SIRICTPMGKLGDSCHPLTRKNNFGNGRQE (AVITGACDKDSQCGGGMCCAVSIWVKSIRICTPMGKLGDSCHPLTRKNNFGNGRQE; listed as Homo sapiens) [PK2β, 56-amino acid mature peptide processed from PK2L pro-peptide by proteolytic (furin) cleavage; recombinant from COS-7 cells]”, the “Binding to PKR2, in words” value with PKR2 [1] is “marginal active at high concentrations”. Besides, the “Agonist character at PKR1, in words” value with PKR1 [2] is listed as “potent full agonist”. The “Receptor selectivity in Ca2+ mobilization, in words” value with PKR2 [3] (PKR1 versus PKR2, FIGS. 5A, 5B) is “only active at PKR1”. Besides, the “Ca2+ response potency in PKR2-expressing cells, fold less potent than PK1 and PK2” value with PKR2 [3] (relative to PK1 and PK2) was “approximately 50 fold”. In addition, in the assay with PKR2 [4], the “cAMP accumulation in PKR2 expressing HEK293 cells, in words” value is given as “marginal activity at high concentrations”. Besides, the “Binding to PKR1, in words” value in the assay with PKR1 [5] is given as “high affinities”.
